From the Human Domainome abundance scans (Beltran et al. 2025) come the findings set out here.

± gives the uncertainty stated by the source.

The labels stand for the following.
B1: SWI/SNF-related matrix-associated actin-dependent regulator of chromatin subfamily B member 1, residues 181 to 248; numbered along this chain, Q12824 (parent)
chain: SQPEVLVPIRLDMEIDGQKLRDAFTWNMNEKLMTPEMFSEILCDDLDLNPLTFVPAIASAIRQQIESY

In the data set the parent is B1. Put plainly: abundance fitness (aPCA) (normalised: wild type 0, dead -1); higher = more abundant; growth selection in yeast, the domain comes from the species named. Conditions: Homo sapiens.
For the variant SQPEVYVPIRLDMEIDGQKLRDAFTWNMNEKLMTPEMFSEILCDDLDLNPLTFVPAIASAIRQQIESY, the abundance fitness is -0.346 ± 0.29. The same measure for SQPEVVVPIRLDMEIDGQKLRDAFTWNMNEKLMTPEMFSEILCDDLDLNPLTFVPAIASAIRQQIESY: -0.221 ± 0.18; for SQPEVWVPIRLDMEIDGQKLRDAFTWNMNEKLMTPEMFSEILCDDLDLNPLTFVPAIASAIRQQIESY: -0.152 ± 0.39. To SQPEVLVPIVLDMEIDGQKLRDAFTWNMNEKLMTPEMFSEILCDDLDLNPLTFVPAIASAIRQQIESY belongs -0.024 ± 0.079; to SQPEVLVPILLDMEIDGQKLRDAFTWNMNEKLMTPEMFSEILCDDLDLNPLTFVPAIASAIRQQIESY, -0.193 ± 0.11; to SQPEVLVPIMLDMEIDGQKLRDAFTWNMNEKLMTPEMFSEILCDDLDLNPLTFVPAIASAIRQQIESY, -0.273 ± 0.28. To SQPEVLVPIPLDMEIDGQKLRDAFTWNMNEKLMTPEMFSEILCDDLDLNPLTFVPAIASAIRQQIESY belongs -0.386 ± 0.27; to SQPEVLVPIYLDMEIDGQKLRDAFTWNMNEKLMTPEMFSEILCDDLDLNPLTFVPAIASAIRQQIESY, 0.138 ± 0.29. SQPEVLVPIWLDMEIDGQKLRDAFTWNMNEKLMTPEMFSEILCDDLDLNPLTFVPAIASAIRQQIESY: the abundance fitness is -0.196 ± 0.1. The same measure for SQPEVLVPINLDMEIDGQKLRDAFTWNMNEKLMTPEMFSEILCDDLDLNPLTFVPAIASAIRQQIESY: -0.03 ± 0.31. To SQPEVLVPITLDMEIDGQKLRDAFTWNMNEKLMTPEMFSEILCDDLDLNPLTFVPAIASAIRQQIESY belongs 0.135 ± 0.055. To SQPEVLVPIELDMEIDGQKLRDAFTWNMNEKLMTPEMFSEILCDDLDLNPLTFVPAIASAIRQQIESY belongs 0.065 ± 0.13; to SQPEVLVPISLDMEIDGQKLRDAFTWNMNEKLMTPEMFSEILCDDLDLNPLTFVPAIASAIRQQIESY, -0.444 ± 0.18; to SQPEVLVPIQLDMEIDGQKLRDAFTWNMNEKLMTPEMFSEILCDDLDLNPLTFVPAIASAIRQQIESY, 0.076 ± 0.083.

Regarding SQPEVLVPIRVDMEIDGQKLRDAFTWNMNEKLMTPEMFSEILCDDLDLNPLTFVPAIASAIRQQIESY, the abundance fitness is -0.624 ± 0.24. The same measure for SQPEVLVPIRPDMEIDGQKLRDAFTWNMNEKLMTPEMFSEILCDDLDLNPLTFVPAIASAIRQQIESY: -0.578 ± 0.42.

On to SQPEVLVPIRADMEIDGQKLRDAFTWNMNEKLMTPEMFSEILCDDLDLNPLTFVPAIASAIRQQIESY, for which the abundance fitness is -0.792 ± 0.38. Consider SQPEVLVPIRFDMEIDGQKLRDAFTWNMNEKLMTPEMFSEILCDDLDLNPLTFVPAIASAIRQQIESY, for which the abundance fitness was -0.215 ± 0.18. The same measure for SQPEVLVPIRSDMEIDGQKLRDAFTWNMNEKLMTPEMFSEILCDDLDLNPLTFVPAIASAIRQQIESY: -0.751 ± 0.37; for SQPEVLVPIRCDMEIDGQKLRDAFTWNMNEKLMTPEMFSEILCDDLDLNPLTFVPAIASAIRQQIESY: -0.848 ± 0.33.

As to SQPEVLVPIRTDMEIDGQKLRDAFTWNMNEKLMTPEMFSEILCDDLDLNPLTFVPAIASAIRQQIESY, the abundance fitness was -0.057 ± 0.13. Regarding SQPEVLPPIRLDMEIDGQKLRDAFTWNMNEKLMTPEMFSEILCDDLDLNPLTFVPAIASAIRQQIESY, the abundance fitness was -0.753 ± 0.18. SQPEVLSPIRLDMEIDGQKLRDAFTWNMNEKLMTPEMFSEILCDDLDLNPLTFVPAIASAIRQQIESY: the abundance fitness is -0.866 ± 0.11. To SQPEVLWPIRLDMEIDGQKLRDAFTWNMNEKLMTPEMFSEILCDDLDLNPLTFVPAIASAIRQQIESY belongs -1 ± 0.18; to SQPEVLTPIRLDMEIDGQKLRDAFTWNMNEKLMTPEMFSEILCDDLDLNPLTFVPAIASAIRQQIESY, -0.77 ± 0.19.

Regarding SQPEVLIPIRLDMEIDGQKLRDAFTWNMNEKLMTPEMFSEILCDDLDLNPLTFVPAIASAIRQQIESY, the abundance fitness was -0.049 ± 0.086.

For the variant SQPEVLQPIRLDMEIDGQKLRDAFTWNMNEKLMTPEMFSEILCDDLDLNPLTFVPAIASAIRQQIESY, the abundance fitness was -0.937 ± 0.19. On to SQPEVLCPIRLDMEIDGQKLRDAFTWNMNEKLMTPEMFSEILCDDLDLNPLTFVPAIASAIRQQIESY, for which the abundance fitness is -0.293 ± 0.079. For the variant SQPEVLDPIRLDMEIDGQKLRDAFTWNMNEKLMTPEMFSEILCDDLDLNPLTFVPAIASAIRQQIESY, the abundance fitness is -0.749 ± 0.23.

On to SQPEVLFPIRLDMEIDGQKLRDAFTWNMNEKLMTPEMFSEILCDDLDLNPLTFVPAIASAIRQQIESY, for which the abundance fitness was -0.547 ± 0.17.

Take SQPEVLEPIRLDMEIDGQKLRDAFTWNMNEKLMTPEMFSEILCDDLDLNPLTFVPAIASAIRQQIESY: the abundance fitness is -0.868 ± 0.18.

Regarding SQPEVLRPIRLDMEIDGQKLRDAFTWNMNEKLMTPEMFSEILCDDLDLNPLTFVPAIASAIRQQIESY, the abundance fitness was -0.998 ± 0.12. The same measure for SQPEVLLPIRLDMEIDGQKLRDAFTWNMNEKLMTPEMFSEILCDDLDLNPLTFVPAIASAIRQQIESY: -0.322 ± 0.055. The same measure for SQPEVLGPIRLDMEIDGQKLRDAFTWNMNEKLMTPEMFSEILCDDLDLNPLTFVPAIASAIRQQIESY: -0.873 ± 0.1; for SQPEVLKPIRLDMEIDGQKLRDAFTWNMNEKLMTPEMFSEILCDDLDLNPLTFVPAIASAIRQQIESY: -0.906 ± 0.17; for SQPEVLMPIRLDMEIDGQKLRDAFTWNMNEKLMTPEMFSEILCDDLDLNPLTFVPAIASAIRQQIESY: -0.646 ± 0.14. Turning to SQPEVLAPIRLDMEIDGQKLRDAFTWNMNEKLMTPEMFSEILCDDLDLNPLTFVPAIASAIRQQIESY, the abundance fitness was -0.65 ± 0.066.

In the case of SQPEVLVPIRLEMEIDGQKLRDAFTWNMNEKLMTPEMFSEILCDDLDLNPLTFVPAIASAIRQQIESY, the abundance fitness is -0.078 ± 0.15. The same measure for SQPEVLVPIRLFMEIDGQKLRDAFTWNMNEKLMTPEMFSEILCDDLDLNPLTFVPAIASAIRQQIESY: -0.73 ± 0.24.
